Assay [1] concerns the target GST-LdPEX3Δ1-42 (L. donovani PEX3 without the N-terminal predicted transmembrane domain, GST-tagged) (Leishmania donovani). The experiment in a line: AlphaScreen or HTRF. (In general: Bead proximity is the source of the signal in Alpha formats.)
For assay [2], the target named is T1, GST-LdPEX3Δ1-42 (L. donovani PEX3 without the N-terminal predicted transmembrane domain, GST-tagged) (Leishmania donovani, UniProt A0A3Q8IW98 43-526).
T1 sequence: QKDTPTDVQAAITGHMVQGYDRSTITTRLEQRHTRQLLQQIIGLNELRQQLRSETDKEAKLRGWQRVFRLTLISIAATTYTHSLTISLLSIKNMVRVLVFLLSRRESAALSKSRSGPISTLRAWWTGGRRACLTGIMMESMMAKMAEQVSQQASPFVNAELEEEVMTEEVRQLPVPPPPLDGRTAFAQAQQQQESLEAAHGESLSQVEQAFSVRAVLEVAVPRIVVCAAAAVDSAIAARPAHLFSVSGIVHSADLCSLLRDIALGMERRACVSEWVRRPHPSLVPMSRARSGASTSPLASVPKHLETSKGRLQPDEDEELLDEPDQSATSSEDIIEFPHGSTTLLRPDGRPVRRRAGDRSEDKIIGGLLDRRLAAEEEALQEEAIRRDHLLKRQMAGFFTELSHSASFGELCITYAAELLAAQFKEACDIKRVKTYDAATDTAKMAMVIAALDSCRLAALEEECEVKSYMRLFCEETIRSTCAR
Briefly: ELISA. For orientation: ELISA stands for enzyme-linked immunosorbent assay.

Assay [3] has as its target T1, GST-LdPEX3Δ1-42 (L. donovani PEX3 …). Briefly: AlphaScreen or HTRF.

This passage reports Kd results from publication doi:10.1101/2024.09.13.612636 (bioRxiv, 2024).

Values joined by “and” are separate entries in the source; they are usually repeats but may differ in a detail not shown here. Equal values may be shown once.

One may read the Kd as the free concentration of one partner at which half of the binding sites on the other are occupied at equilibrium, for simple one-to-one binding.

As to “Tag-free LdPEX19 (from LdPEX19-T-His6 by thrombin cleavage) (natural protein)”, in assay [1], the equilibrium dissociation constant (Kd) is 11.9 nM.

B1: LdPEX19-His6 (C-terminally His6-tagged full-length L. donovani PEX19, pET21b) (natural protein)
chain: MSDDDLDALLDEAMDMVDEQERKHEEEVRVRDAKLEDDLQKALDEASGTAGGDADMMKMLMSMLGGDSADDASLDSFKKSVMTMVSSLEGEENLGEEDKANLLRVKELMRVMEEEDIDKANDLLEQMKQEGKLPDCNNVGDAEIDEASRRCMEMLQQLSSATQVGHLDPAATPGAASSSSAAPPAAPAGDGAEIPSEVGRATEAMASALISTLADPQFVEPIKLMRDSYGPYMDAHGSELSHEDCERYERQRAKAQEICDLLQNPISGAEDPRLIQLLELMNKYSELGDPPRNLVKYAPKNRKGVEECQ
In the case of B1, the Kd in assay [2] is 10.6 nM and 10.5 nM; in assay [3], 10.4 ± 2.57 nM.
